The data set in a line: protein stability index of a GFP-peptide fusion (GPS, HEK-293T) (PSI 1-6); higher = more stable.
The mark [1] stands for this setting: treatment: DMSO, c terminus: a fixed tail appended.
[2] abbreviates: treatment: MLN4924 1 uM, 8 h, c terminus: a fixed tail appended.

± gives the standard deviation.
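Note: 24-mer peptide tiles fused after GFP, lentivirally expressed, FACS-sorted into six equal bins by GFP/DsRed ratio, decoded by Illumina sequencing, PSI is the read-weighted mean bin number.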

EICSEPVAASPAPAGERRIYRHRI [ZNF511]: the protein stability index by setting is: under setting [1], 4.27 ± 0.47; under setting [2], 4.09 ± 0.26.

For EKCKEEFVEEIKKLATQHKQLISQ [ZMYND11], the protein stability index amounted to 4.2 ± 0.28 under setting [1] and 4.06 ± 1.2 under setting [2].

EKGLPLRKTHVLLGRSHDTVQEAA [MFSD9] yielded a protein stability index under setting [1] of 4.22 ± 0.23 and a protein stability index under setting [2] of 4.15 ± 0.34.

For the sequence EKLGSGEPSHSVKVHTVPKPGKGA [ATE1], the protein stability index worked out at 5.04 ± 0.23 under setting [1] and 5 ± 0.22 under setting [2].

Take EKLSRGLRYYYDKNIIHKTSGKRY [ETS2]: the protein stability index under setting [1] worked out at 2.74 ± 0.34 and the protein stability index under setting [2] was 2.92 ± 0.2.

Regarding EKSVTKDAEGLAARDVQKIIGDYF [INTS4], the protein stability index came to 2.85 ± 0.4 under setting [1] and 3.51 ± 0.12 under setting [2].

ELANGKPQTRSGPECGLAKKPPEE [ADAMTSL2]: the protein stability index under setting [2] is 4.78 ± 0.42.

For the sequence ELDELLKEISRKRRSIRYGREVEL [PTPRD], the protein stability index is, setting by setting: under setting [1], 2.5 ± 0.68; under setting [2], 2.96 ± 0.61.

Turning to ELEKAHLALIDYLTQKRSQLVKKL [VPS39], the protein stability index came out at 2.28 ± 0.39 under setting [1] and 2.58 ± 0.23 under setting [2].

Turning to ELGSEVDITEGDRKPDYTAYVAMI [ATF4], the protein stability index was 3.46 ± 0.15 under setting [1] and 3.61 ± 0.3 under setting [2].

ELLDLSKQYDQQFPDGDDEFDSPH [STX11]: the protein stability index is, setting by setting: under setting [1], 4.89 ± 0.2; under setting [2], 4.9 ± 0.17.

ELNNCISMLVAGNDRVQTIITQLE [TRIM63]: the protein stability index by setting is: under setting [1], 2.25 ± 0.39; under setting [2], 2.38 ± 0.11.

ELQQRNPKAERLRWSPAQEESFRQ [ZNF232]: the protein stability index was determined as 3.3 ± 0.37 under setting [1] and 3.49 ± 0.77 under setting [2].

As for ELRLYKQQVKKLEKALKKNVKLQE [CEP70], the protein stability index by setting is: under setting [1], 2.8 ± 0.59; under setting [2], 3.08 ± 0.25.

Take EMCHKPDVELLQDLGDIVARSESV [TRIM43]: the protein stability index reads like this: under setting [1], 4.66 ± 0.15; under setting [2], 4.62 ± 0.24.

Consider EMDKLRASDIMEPNLTYVYPHTRI [CLCN6], for which the protein stability index was 2.58 ± 0.23 under setting [1] and 2.92 ± 0.31 under setting [2].

ENAQIIYSLAEDTIQGVPLSSYIS [PCDHGA10] registered a protein stability index under setting [1] of 2.51 ± 0.41 and a protein stability index under setting [2] of 2.82 ± 0.43.

Turning to ENEQRRLFIQKEEQLQQILKRKNK [MNAT1], the protein stability index reads like this: under setting [1], 4.38 ± 0.18; under setting [2], 4.21 ± 0.2.

With ENKESWDKILALVPETIHDELQQS [PRIM1], the protein stability index turned out to be 4.82 ± 0.3 under setting [1] and 4.72 ± 0.39 under setting [2].

ENPDLQEAYIAKQKRLKSKLLDHD [GDAP1]: the protein stability index under setting [1] worked out at 4.53 ± 0.11 and the protein stability index under setting [2] stood at 4.67 ± 0.15.

Turning to EPASESVVGALPAEHQFSFMEKRN [TRAF3IP2], the protein stability index by setting is: under setting [1], 4.71 ± 0.26; under setting [2], 4.98 ± 0.27.

As to EPGRLGSSSPASVTTEQLGAKMTE [PXN], the protein stability index by setting is: under setting [1], 5.2 ± 0.46; under setting [2], 5.23 ± 0.24.

In the case of EPQPFVTSDVYSSDAAFGGILERY [MYORG], the protein stability index is, setting by setting: under setting [1], 3.79 ± 0.095; under setting [2], 3.87 ± 0.058.

As for EPTAAATARRSKRERREEDRAPAE [PWWP2B], the protein stability index reads like this: under setting [1], 5.7 ± 0.095; under setting [2], 5.45 ± 0.14.

Turning to EPWLPLTDGRSPRRSRDPGYDHLW [PLEKHN1], the protein stability index reads like this: under setting [1], 3.68 ± 0.14; under setting [2], 3.57 ± 0.26.

For the sequence EPYGHLNPKWTKWLQKLCCPCCFG [PI4K2A], the protein stability index by setting is: under setting [1], 3.33 ± 0.33; under setting [2], 3.37 ± 0.21.

Turning to EQGLSALHLAAQGRHAQTVETLLR [RIPK4], the protein stability index came out at 3.71 ± 0.55 under setting [1] and 4.12 ± 0.23 under setting [2].

Regarding EQHISKCKKAFREGSRKSSRVKGS [KMT2E], the protein stability index reads like this: under setting [1], 4.59 ± 0.26; under setting [2], 4.63 ± 0.25.

Regarding EQLIEAINNGDFEAYTKICDPGLT [CAMK2D], the protein stability index under setting [1] turned out to be 4.06 ± 0.34 and the protein stability index under setting [2] is 4.1 ± 0.23.

EQLREALHEALLEYEAGRAGPGGG [ESRRA]: the protein stability index reads like this: under setting [1], 3.92 ± 0.27; under setting [2], 4.05 ± 0.39.

Take EQQQILIRQLQEQHYQQYMQQLYQ [ACBD3]: the protein stability index is, setting by setting: under setting [1], 2.2 ± 0.38; under setting [2], 2.24 ± 0.3.

As to EQRANDLEQIMESVKSKIGELEDE [CEP70], the protein stability index runs as follows: under setting [1], 5.41 ± 0.098; under setting [2], 5.39 ± 0.18.

In the case of EQVANKGEPLALPLDAGEYCVPRG [BEX1], the protein stability index is, setting by setting: under setting [1], 4.86 ± 0.29; under setting [2], 4.79 ± 0.27.

Turning to ERDLQELSIQVEEERRAREWLLDA [ZMAT5], the protein stability index reads like this: under setting [1], 4.54 ± 0.092; under setting [2], 4.95 ± 0.32.

With ERHCHLYTFHARFGEVRPYFYLGG [TRIM35], the protein stability index by setting is: under setting [1], 2.61 ± 0.49; under setting [2], 2.6 ± 0.52.

As for ERLAKNLVEKGVLTTEKQNFLLFD [GOLPH3], the protein stability index amounted to 3.16 ± 0.52 under setting [1] and 3.43 ± 0.34 under setting [2].

The sequence ERRGTPADTEEPTKDPDVAFHGLS [PSD2] had a protein stability index under setting [1] of 5.38 ± 0.42 and a protein stability index under setting [2] of 5.38 ± 0.17.

Regarding ERTYSANCSDFLESKGCFANTTPS [SPATS1], the protein stability index is, setting by setting: under setting [1], 3.67 ± 0.14; under setting [2], 3.56 ± 0.18.

With ESEFDIEDEDKSEPEQTGADAAED [RBBP5], the protein stability index is, setting by setting: under setting [1], 5.73 ± 0.18; under setting [2], 5.826 ± 0.029.

With ESIQRIAVHLCNALVCQVDNDHKE [ZER1], the protein stability index is, setting by setting: under setting [1], 2.81 ± 0.63; under setting [2], 2.64 ± 0.36.

As to ESLLAPLNVELDPEIQKVRAQERE [KRT71], the protein stability index under setting [1] was found to be 5.54 ± 0.44 and the protein stability index under setting [2] stood at 5.48 ± 0.2.

Take ESQASRKEEGLPEEEPSHVTGREG [ZNF8]: the protein stability index runs as follows: under setting [1], 5.62 ± 0.1; under setting [2], 5.59 ± 0.2.

As to ESSVPSTVGCSSQHTPDQANSDRA [PLEKHN1], the protein stability index amounted to 5.42 ± 0.2 under setting [1] and 5.61 ± 0.16 under setting [2].

As for ETLLGDPKRRMRYFDPLRNEYFFD [KCNA3], the protein stability index came to 2.58 ± 0.37 under setting [1] and 2.79 ± 0.29 under setting [2].

The sequence ETPEWLDSDSCQKCDQPFFWNFKQ [WDFY2] displayed a protein stability index under setting [1] of 2.94 ± 0.29 and a protein stability index under setting [2] of 3.19 ± 0.11.

The sequence ETTEAIDDEGWLHSGDLGQLDGLG [ACSBG2] registered a protein stability index under setting [1] of 5.23 ± 0.25 and a protein stability index under setting [2] of 5.15 ± 0.21.

In the case of EVLEWYTAKDFIVGKSLTILGRTF [EFHC1], the protein stability index by setting is: under setting [1], 3.13 ± 0.62; under setting [2], 2.62 ± 0.61.

For EWVLSTGQDKQFAWHCSESGQRLG [WDFY2], the protein stability index under setting [1] was 3.21 ± 0.23 and the protein stability index under setting [2] is 3.05 ± 0.2.

EYDVYSTFQSHEPEFDYLKSLEIE [PPP2R2C]: the protein stability index was 4.33 ± 0.17 under setting [1] and 4.3 ± 0.078 under setting [2].

As for FAASLLTVFAWLLQYARGLWLARA [C2CD2L], the protein stability index stood at 2.8 ± 0.49 under setting [1] and 2.54 ± 0.4 under setting [2].

Consider FAGSMFGSVALGPVCPTVCPPGGI [KRT71], for which the protein stability index by setting is: under setting [1], 2.73 ± 0.61; under setting [2], 2.36 ± 0.57.

In the case of FAKAGDTLSGTCLLIANKRQSYDI [CARM1], the protein stability index amounted to 2.48 ± 0.38 under setting [1] and 2.36 ± 0.41 under setting [2].

For FAPLLDEQYDLATKRVRQLLDLDP [GOLPH3], the protein stability index by setting is: under setting [1], 2.64 ± 0.48; under setting [2], 2.94 ± 0.33.

In the case of FAYYKLNDVRQAARSAASYMLFDP [P3H4], the protein stability index is, setting by setting: under setting [1], 2.12 ± 0.22; under setting [2], 2.14 ± 0.16.

With FCIPEHISPKARCLIRSLLRREPS [TRIB1], the protein stability index amounted to 2.34 ± 0.47 under setting [1] and 2.03 ± 0.32 under setting [2].

Regarding FDPKTKRILTLQKANSWFNCRKN [MMP1], the protein stability index reads like this: (treatment: DMSO, c terminus: native) 2.84 ± 0.41; (treatment: MLN4924 1 uM, 8 h, c terminus: native) 2.78 ± 0.25.

With FGATTNYGKDIVKACSLLDVAVHM [ZBED1], the protein stability index is, setting by setting: under setting [1], 2.17 ± 0.37; under setting [2], 2.1 ± 0.34.

Consider FGWETKIKAWMDRYEEANNNQYSE [KMT2E], for which the protein stability index is 3.1 ± 0.18 under setting [1] and 3.58 ± 0.13 under setting [2].

For FIICIVIAILLYKSKPDRKRAESD [PTPRD], the protein stability index reads like this: under setting [1], 2.96 ± 0.72; under setting [2], 2.97 ± 0.043.

For the sequence FKKVLDLNPGFQDATLSLKQTILD [TTC32], the protein stability index is, setting by setting: under setting [1], 2.7 ± 0.24; under setting [2], 2.86 ± 0.2.

In the case of FKLKESCVRRRYSDFEWLKNELER [SNX12], the protein stability index is, setting by setting: under setting [1], 2.33 ± 0.21; under setting [2], 2.59 ± 0.26.

Regarding FKLTNKNSDRMTHCGVLEFVADEG [UFD1], the protein stability index by setting is: under setting [1], 3.32 ± 0.18; under setting [2], 3.27 ± 0.31.

Regarding FLADEEFDVVVCDQVSACIPVFRL [ALG2], the protein stability index turned out to be 2.3 ± 0.43 under setting [1] and 2.34 ± 0.47 under setting [2].

With FLLIVTLCVILYKKVHKGTVPKND [GLT8D2], the protein stability index runs as follows: under setting [1], 2.59 ± 0.8; under setting [2], 2.3 ± 0.59.

In the case of FLPGYVGGIQEGAVTPAGVVNKYQ [DHCR7], the protein stability index came out at 3.42 ± 0.21 under setting [1] and 3.45 ± 0.24 under setting [2].

In turn, FLPLNSAQTLHHKSCYNGRFQLLY [DNAAF3] registered a protein stability index under setting [1] of 2.54 ± 0.32 and a protein stability index under setting [2] of 2.38 ± 0.36.

Take FLQKSSVGITVLNLCALSVDRYRA [EDNRA]: the protein stability index by setting is: under setting [1], 2.69 ± 0.54; under setting [2], 2.75 ± 0.54.

Consider FLSGMEAAPRTLAAHPPLPLLPPA [TBX6], for which the protein stability index came to 2.95 ± 0.41 under setting [1] and 3.15 ± 0.26 under setting [2].

For the sequence FLVSAVAHEYIFCFVLGFFYPVML [SOAT2], the protein stability index was found to be 3.25 ± 0.35 under setting [1] and 3.3 ± 0.44 under setting [2].

In the case of FMLLLIFFAFLHCWLNAFAEMLRF [SOAT2], the protein stability index is, setting by setting: under setting [1], 3.07 ± 0.18; under setting [2], 2.88 ± 0.57.

Sequence FMLLTQARLFDEPQLASLCLDTID [BTBD1] displayed a protein stability index under setting [1] of 2.29 ± 0.52 and a protein stability index under setting [2] of 2.34 ± 0.48.

Regarding FMVVDLLLGGDLRYHLQQNVHFKE [STK32A], the protein stability index amounted to 2.8 ± 0.66 under setting [1] and 3.09 ± 0.78 under setting [2].

The record behind these values is the supplement of paper PMC10567573.
